Source: the nanobody polyreactivity screen of Harvey et al. (2022)

Assay: yeast display, Sf9 membrane polyspecificity reagent, FACS + sequencing; frameworks hold sequencing errors
Method in brief: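 Nanobodies from a synthetic yeast display library (Saccharomyces cerevisiae BJ5465), induced 36–48 hours with galactose, were stained 1 hour at 4 °C with 10% biotinylated, detergent-solubilized Sf9 membrane reagent, enriched on streptavidin microbeads, then FACS-sorted. Anti-HA (expression) and streptavidin (reagent binding) fluorescence set low and high (top ~1%) gates. Polyreactivity labels come from the gate of origin. Genes were colony-PCR amplified, MiSeq 2 × 250 sequenced and filtered by CDR length.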

Row | Sequence | polyreactivity (PSR sort gate)
1 | QVQLVESGGGLVQAGGSLRLSCASSGRTFPGNAMGWYRPAPGKERELVAAISWSGTRTYYADSVKGRFTISRDNAKNTVSLKMNSLKPEDTAVYSCNVVVKGAWDYYPYDYWGQGTQVTVSS | high polyreactivity
2 | QVQLVESGGGLVQAGGSLRLSCASSGRTFRPYAKGWYRPAPGKDRELVAAITGGTRTYYADSVKGRFTISRDNAKNTVYLQMNSLKPEDTAGYYCAKGDFFSKHDYWGQGTQVTVSS | low polyreactivity
3 | QVQLVESGGGLVQAGGSLRLSCASSGRTFRRYARGWYRQAPGKERELVATIRSGDNTNYADSVKGRFTISRDNAKNTVYLQMNSLKPEDTAVYYCNRSPKSGQVTYLYSVNAHYDYWGQGTQVTVSS | low polyreactivity
4 | QVQLVESGGGLVQAGGSLRLSCASSGRTFRYYAKGWYRQAPGKERELVATISSGGSTNYADSVKGRFTISRDNAKNTVYFQMNSLKPEDTAVYYCAAAKYVTYLSIYYYWGQGTQVTVSS | high polyreactivity
5 | QVQLVESGGGLVQAGGSLRLSCASSGRTFTYNAMGWYRQAPGKERELVAVIRYSGGTTYYADSVKGRFTISRDNAKNTVYFQMNRLIPEDTAVYYCAADSWSRSVNYYYWGQGTQVTVSS | low polyreactivity
6 | QVQLVESGGGLVQAGGSLRLSCASSGRTFVFYAMGWYRHAPGKERELVAAITSGTSTNYADSVKGRFTISRDNAKNTVYLQMISLKPEDTAVYYCAAYWTDVTYSIGFGYWGQGTQVTVSS | low polyreactivity
7 | QVQLVESGGGLVQAGGSLRLSCASSGSIFGGNAMGWYRQAPGKERELVAAITQSGDRTYYADSVKGRFTISRDNAKNTVYLQMNSLKPEDTAVYYCAARSPRKYGSIGYYWGQGTEVTVSS | high polyreactivity
8 | QVQLVESGGGLVQAGGSLRLSCASSGSIFTGNVMGWYRQAPGKERELVAAISSRGGNTYYADSVKGRFTISRDNAKNTVYLQMNSLKPEDTAVYYCNKVKYTWYDWGQGTQVTVSS | high polyreactivity
9 | QVQLVESGGGLVQAGGSLRLSCASSGSNFGRYAMGWYRQAPGKEREFVAAISRSSDNTSYADSVKGRFTISRDIAKNTVYLQMNRLNPEDRAVYYCNADRPFSLGQRKYVDFDEPYNYWGQGTQVTVSS | low polyreactivity
10 | QVQLVESGGGLVQAGGSLRLSCASSGSTFFTNVMVRYRQAPGKERELVAAIDQRDGRTYYADSVKGRFTISRDNAKNTVYLQMNSLKPEDTAVYYSNAGTDGYQFYFGFADYDYWGQGTQVTVSA | low polyreactivity
11 | QVQLVESGGGLVQAGGSLRLSCASSGSTFISYAMGWYRPAPGKERELVAAISRRGDSTYYADSVKGRFTISRDNAKNTVYLQMNSLKPEDSAVYYCNAVEWDDYYYSYADYGYSYDYWGQGTQVTVSS | low polyreactivity
12 | QVQLVESGGGLVQAGGSLRLSCASSGSTFPGNAMGWYRQAPGKERELVAAIRDRGTSTYYADSVKGRFTISRDNAKNNVYLQMNSLKPEDTAVYYCAAASRVAKGRWRLYDDWGQGTQVTVSS | high polyreactivity
13 | QVQLVESGGGLVQAGGSLRLSCASSGSTFPRYAMGWYRPAPGKETELVAAISSSGRTYYADSVKGRFTISRDNAKNTVFLQMNSLKPEDTAVYYCNAPVARGEASYYWGQGTQVTVSS | high polyreactivity
14 | QVQLVESGGGLVQAGGSLRLSCASSGSTFSIYAMGWYRQAPGKERELVAGISGSGGSTYYADSVKGRFTISRDNAKNTVYLQMNSLKPEDTAVYYCAKRVLWGLDYWGQGTQVTVSS | low polyreactivity
15 | QVQLVESGGGLVQAGGSLRLSCASSGSTFVPNTLGWYRQAPGKERELVAAISRSGGSTYYADSVKGRFTISRDNAKNTVYLQMNSLKPEDTAVYYCAARRFGYQGFAYGYWGQGTQVTVSS | high polyreactivity
16 | QVQLVESGGGLVQAGGSLRLSCASSGSTFVYNVMGRYRQAPGKERDLVAAISRSGGSTYYADSVKGRFTISRDNAKNSVYLQMNSLKPEDTAVYYCAKRVYGWWYDHWGQGTQVTVSS | high polyreactivity
17 | QVQLVESGGGLVQAGGSLRLSCASSGSTFYFNAMGWYRQAPGKERELVAAITSSGGTTYYADSVKGRFTISRDNAKNTVYLQMNSLKPEDTAVFYCADWFSAYYSLYRHRGYWGHGTQVTVSS | low polyreactivity
18 | QVQLVESGGGLVQAGGSLRLSCASSGSTFYWNGMGWYRQAPGKERDLVADITWSGTSTNYADSVKGRFTISRDNAKNTVYLQMNSLKPEDTAVYYCAVSDFGLRDSLTIYDEYDYWGQGTQVTVSS | high polyreactivity
19 | QVQLVESGGGLVQAGGSLRLSCASSGSTLGVNAMGWYRQAPGKVRELVADISVRTDSTYYADSVKGRFTISRDNAKNTVYLQMNSLKPEDTAVYYCAADVPYYYPGFYSYYDDSDYWGQGTQVTVSS | low polyreactivity
20 | QVQLVESGGGLVQAGGSLRLSCASSGYTFRYYAMGWYRQAPGKERELVAAITRRGATTYYADSVKGRFTISRDNAKNTVYLQMNRLQPEDTADYYCNAVYQYGSFVTAAGNYWGQGTQVTVSS | high polyreactivity
21 | QVQLVESGGGLVQAGGSLRLSCASSRINFYLYAMGWYRQAPGIERELVAAISRRGVSTYYADSVKGRFTISRDNAKNSVYLEMKSLKAEDTGVYYCAAAGFGYTGEEFWGQGTQVTVSS | high polyreactivity
22 | QVQLVESGGGLVQAGGSLRLSCASYGRIIGIYAMGWSRPAHGKERELVATITDSDDSTYYADSVKGRFTISRDNAKNTVYLQMNSLKPEDTAVYFCATAFSYGGGAYDYWGHGTQVTVSS | low polyreactivity

Row | Sequence | polyreactivity (PSR sort gate)
23 | QVQLVESGGGLVQAGGSLRLSCATSGITFIGKYAMGWYRQAPGKERELVAAISWSGGRTYYADSVKGRFTISRDNAKNSDYLQMNSLKPEDTAVYYCAVYPRDAERYGYWGQGTQVTVSS | high polyreactivity
24 | QVQLVESGGGLVQAGGSLRLSCATSGRTLGGYAMGWYRHAPGKERELVASITSTSSTYADSVKGRFTISRDNAKNTVYLQMNSLKPEDTAVYYCAADPRRYRGFGYVYGGFYYWGQGTQVTVSS | low polyreactivity
25 | QVQLVESGGGLVQAGGSLRLSCATSGSIFVFNAMGWYRQAPGKERELVAAIDTSDDITYYADSVKGRFTISRDNAKNTVYLQMNSLKPEDTAVYYCNAYYTYRFNYWGQGTQVTVSS | high polyreactivity
26 | QVQLVESGGGLVQAGGSLRLSCDASGFISFGNAMGWNRQAPRKERELVAGISRSGGSTYYADSVKGRFTISRDNAKNTVYLQMISLKPEDTAVYYCATRVAIYPYRFDYWGQGTQVTVSS | high polyreactivity
27 | QVQLVESGGGLVQAGGSLRLSCDASGFTFARYNMGWYRQAPGKERELVAAISSRGSSTYYADSVKGRFTISRDNAKNTVYLQMNSLKAEDTAVYYCAAPPRYGYDYWGQGTQVTVSS | high polyreactivity
28 | QVQLVESGGGLVQAGGSLRLSCDASGGPFYLNAMGWYRPAPGTERELVAGITWGGGRTYYADSVKGLFTISRDNAKNTVYLQMNSLKPEDTAVYYCAAGAWRGPYSGYYYWGQGTQVTVSS | low polyreactivity
29 | QVQLVESGGGLVQAGGSLRLSCDASGGTITNYAMGWYRQAPGKERELVAAITDSGATTYYADSVKGRFTISLVTAKNPVSLQMNSLKPEDTAVYDCNAELDLYTYFDYWGQGTQVTVSS | low polyreactivity
30 | QVQLVESGGGLVQAGGSLRLSCDASGIIFASYAMGWYRQAPGKERELVAAISGGGSTYYADSEKGRFTISRDNAKNTVYLQMNSLKPVDTAVYYCNAEAYYRWLTNIWYSDFDYWGLGTQVTVSS | low polyreactivity
31 | QVQLVESGGGLVQAGGSLRLSCDASGIIFRGNSMGWYRQAPGKERELVAAISRSGRTNYADSVKGSFTISRDNAKNTVYLQMYSLKPEDTAVYYCAVDKRYGRVFGRDYDYWGQGTQVTESS | high polyreactivity
32 | QVQLVESGGGLVQAGGSLRLSCDASGIIIRWYAMGWYRQAPGKERELVAAITSSGGRTYYADSVKGRFTISRDNAKNTVYLQMNSLKPEDTAVYYCAAQRYSHLYRGRFAYRYYYWGQGTQVTVSS | high polyreactivity
33 | QVQLVESGGGLVQAGGSLRLSCDASGITLRTYSIGWYRQAPGKERELVAAISKSGDRTYYADSVKGRFTISRDNAKNTVYLQMNSLKPEDNAVYYCAKATNAQYLYDYWGQGTHVTVSS | low polyreactivity
34 | QVQLVESGGGLVQAGGSLRLSCDASGLIFRPYARGWFRQAPGKERELVAAITSGGSTDYADSVKGRFTISRDNAKNTVYLLMNSLKPADTAVYYCNADIYPHDGYPWQGDYDYWGQGTQVTVSS | low polyreactivity
35 | QVQLVESGGGLVQAGGSLRLSCDASGLTFPSYAMGWYRQAPGKERELVAAISSGDSTNYADSVKGRFTISRDNAKNTVYLQMNSLKPEDTAVYYCAVGLPHGGRRLYGSWYRFDYWGQGTQVTVSS | low polyreactivity
36 | QVQLVESGGGLVQAGGSLRLSCDASGLTFSFYVMGWYRQAPVKERELVAAISRSGTSTYYSDSVKGRFTISRDNAKNTVYLQMNSLKPEDTAVYYCADRGRWLYYLYELDYWGQGTQVTESS | high polyreactivity
37 | QVQLVESGGGLVQAGGSLRLSCDASGLTFSGYVMGWYRQAPGKESELVAAISLSGGSTYYADSVKGRFTISRDNAKNTVYLQMNSLKPEDTAVYYCAARTPFYNSYRRDYWGQGTQVTVSS | high polyreactivity
38 | QVQLVESGGGLVQAGGSLRLSCDASGLTIYGYAIGSYRQAPGKERELVAAITSGDSTYYADSVKGRFTISRDTAKNTVYFQMNSLKPDDTAVYYCAAVGGYPRYGYWGQGTQVTVSS | high polyreactivity
39 | QVQLVESGGGLVQAGGSLRLSCDASGRIFSLYAMGWYRQAPGKERELVAAISRRSGNTNYADSVKGRFTISRDNAKNNVFLQLNSLKPEDTAVYFCAARPGAISSTSPYDYWGEGTQVTVSS | high polyreactivity
40 | QVQLVESGGGLVQAGGSLRLSCDASGRIFVVYAMGWSRQAPGKERELVAAITGGGRTNYADSVKGRFTISRDNAKNTVYLQMNSLKPEDTAVYYCAAGTRSDARRYYYWGQGTQVTVSS | low polyreactivity
41 | QVQLVESGGGLVQAGGSLRLSCDASGRTFGYYAMGWYRHAPGQERELVAGIRSSGGSTYYADSVKGRFTISRDNAKNTVYLQMNSLKPEDTAVYYCAARLRSYHYRYGYDYWGQGTQVTVSS | high polyreactivity
42 | QVQLVESGGGLVQAGGSLRLSCDASGRTFIVYAMGWYRQEPGKERELVARISSGSRTSYADSVKGRFTISRDNAKNTVYLQMNSLKPEDTAVYYCNAREYLKPGVPYYSQQLDYWGQGTQVTVSS | low polyreactivity
43 | QVQLVESGGGLVQAGGSLRLSCDASGSIFDGYGMGWYRQAPGKERELVASITCNDGSTYYADSVKGRFTISRDNANNTFYLQMNSLKPEDTAVYYCASDQWGYEYDYWGQGTQVTVSS | low polyreactivity
